According to patent US20020045205A1, “Method for autoactivation of procaspase 8” (priority 1998, published 2002):

Columns and labels:
[1] = substrate: CC(=O)N[C@@H](CC(=O)O)C(=O)N[C@@H](CCC(=O)O)C(=O)N[C@H](C(=O)N[C@@H](CC(=O)O)C(=O)Nc1ccc([N+](=O)[O-])cc1)C(C)C; assay: Substrate Km in caspase 8 enzyme assay; format: biochemical, human; conditions: other: 100 mM sodium phosphate/10 mM Tris/100 mM DTT, pH 7.50, 37° C., pH 7.5
Description: Unless otherwise indicated, all specific enzyme activity measurements described herein were made using the Ac-DEVD-pNA substrate. […] Initial rates were determined as follows: 100 μl of 1M DTT, 790 μl 100 mM sodium phosphate/10 mM Tris, pH 7.50, and 10 μl of caspase 8 sample solution (for protein concentrations near 0.5 mg/ml) were added to a quartz semi-micro cuvette.

[2] = Cleavage of chromogenic and fluorogenic caspase substrates; format: biochemical, human; conditions: substrates Ac-DEVD-pNA, Ac-IETD-pNA, Ac-DEVD-AMC
Description: Enzyme activity of caspase 8 preparations was monitored using the chromogenic substrates Ac-DEVD-pNA or Ac-IETD-pNA or the fluorogenic substrates Ac-DEVD-AMC or Ac-IETD-AMC. For the chromogenic substrates, kinetic release of para-nitroaniline (pNA) was followed at 405 nm using either a Lambda 6 spectrophotometer or in a microtitre plate format using a Molecular Devices Thermomax plate reader with 405 nm wavelength filter. Kinetic enzyme assays monitoring the release of 7-amino-4-methyl-coumarin from the fluorogenic substrates were conducted using a Molecular Devices fmax plate reader with Ex=355 nm and Em=460 nm.

B1: caspase 8 (Homo sapiens) (protein)
chain 1: SPREQDSESQTLDKVYQMKSKPRGYCLIINNHNFAKAREKVPKLHSIRDRNGTHLDAGALTTTFEELHFEIKPHDDCTVEQIYEILKIYQLMDHSNMDCFICCILSHGDKGIIYGTDGQEAPIYELTSQFTGLKCPSLAGKPKVFFIQACQGDNYQKGIPVETD
chain 2: LSSPQTRYIPDEADFLLGMATVNNCVSYRNPAEGTWYIQSLCQSLRERCPRGDDILTILTEVNYEVSNKDDKKNMGKQMPQPTFTLRKKLVFPSD
notes: the 19 kDa peptide (S ^18PREQD . . . IPVETD^181); the 11 kDa chain (L^192SSPQ . . . LVFPSD^286); (His)6 (MRGS(H)6 leader, 12-residue prosegment from pQE30) (N, cleaved yes); made in house; host or cells: E. coli M15 (pREP4), vector pQE30
Km [1]: 167 µM

B2: Concentrated, but unprocessed, protein: recombinant procaspase 8 polypeptide lacking the DED prodomain, with (His)6 tag, SEQ ID NO:1 (protein, listed as Homo sapiens)
chain: MRGSHHHHHHGSMTISDSPREQDSESQTLDKVYQMKSKPRGYCLIINNHNFAKAREKVPKLHSIRDRNGTHLDAGALTTTFEELHFEIKPHDDCTVEQIYEILKIYQLMDHSNMDCFICCILSHGDKGIIYGTDGQEAPIYELTSQFTGLKCPSLAGKPKVFFIQACQGDNYQKGIPVETDSEEQPYLEMDLSSPQTRYIPDEADFLLGMATVNNCVSYRNPAEGTWYIQSLCQSLRERCPRGDDILTILTEVNYEVSNKDDKKNMGKQMPQPTFTLRKKLVFPSD
modifications: (His)6 tag
activity against caspase substrates [2]: no measurable activity
